Data reported in patent US20020115613A1, “Treatment of prostate cancer” (priority 2001, published 2002).

How the values were obtained:
LNCaP C4-2 cells = experiment: Western blotting of death receptors, caspases, Bid, cytochrome c, Akt; type: cell-based; details: 15 min, FIG. 8
PC3Neo cells = experiment: Induction of apoptosis / cell survival (FIG. 1E, 6A); type: cell-based
Description: Prostate cancer cell lines, PC3Neo and PC3AR were provided by Dr. K. Burnstein, University of Miami School of Medicine, Miami, Fla. PC3AR cells are a clonal cell line derived by stable transfection of PC3 with a full-length human AR cDNA (Dai, J. L., et al., Steroids, 61, 531-539, 1996). PC3Neo cells were stably transfected with neomycin vector alone. Cells were grown in RPMI 1640 with 5% FBS (Hyclone, Logan, Utah), 100 units/ml penicillin, 100 μg/ml streptomycin, 0.25 μg/ml fungizone and G418 (350 μg/ml) to select for neomycin-resistant cells. In experiments using antiandrogens, cells were maintained in 5% DCC stripped serum for at least 48 hr before treatment with hydroxyflutamide (Sigma Chemical Co., St. Louis, Mo.). The medium and all the drugs were replaced every two days. Cells were treated with 200 ng/ml, 400 ng/ml or 600 ng/ml of TRAIL (Biomol Research Laboratories, Inc, Plymouth Meeting, Pa.) for 2, 4, 6, 8, 16 and 20 hr. Cells were treated with 5 μM hydroxyflutamide for 5 days before the commencement of treatment with 400 ng/ml TRAIL.
Two methods were used to measure induction of apoptosis by drug treatment: the MTT assay and the Apoptosense assay. The MTT assay measures mitochondrial enzyme activity and is indicative of the number of surviving cells. The Apoptosense assay is an ELISA, which utilizes M30 antibody to recognize the C-terminal domain (amino acids 387-396) of cytokeratin 18 that is exposed in apoptotic cells after cleavage by caspases.
Cells were seeded in 96-well plates (6000 cells/well) and treatment was started 24 hr after seeding the cells. After completion of the treatment, cells were incubated at 37° C. with the MTT reagent for 3 hr and processed according to manufacturers instructions (Promega Corporation, Madison, Wis.). Color development was measured at 490 nm on a Spectra MAX 340 microplate reader (Molecular Devices, Menlo Park, Calif.).
To examine the role of NFκB in altered response to TRAIL, its function was blocked by over expressing mutated IκB protein (Kanegae, Y., et al., Nature 392, 611-614, 1998). […]

B1: Tumor necrosis factor α—Related Apoptosis Inducing Ligand (protein, UniProt P50591 1-281, looked up)
Tumor necrosis factor ligand …: MAMMEVQGGPSLGQTCVLIVIFTVLLQSLCVAVTYVYFTNELKQMQDKYSKSGIACFLKEDDSYWDPNDEESMNSPCWQVKWQLRQLVRKMILRTSEETISTVQEKQQNISPLVRERGPQRVAAHITGTRGRSNTLSSPNSKNEKALGRKINSWESSRSGHSFLSNLHLRNGELVIHEKGFYYIYSQTYFRFQEEIKENTKNDKQMVQYIYKYTSYPDPILLMKSARNSCWSKDAEYGLYSIYQGGIFELKENDRIFVSVTNEHLIDMDHEASFFGAFLVG
notes: 281 amino acid type II transmembrane protein of the tumor necrosis factor α family; purchased from Biomol
- phosphorylated Akt (LNCaP C4-2 cells): slightly decreased phosphorylated Akt
- apoptotic response at 200 ng/ml (PC3Neo cells; 200 ng/ml TRAIL): lower response
- death of cells (apoptosis) (PC3Neo cells; 400 ng/ml TRAIL, by 20 hr, FIG. 1E): ~18%
- apoptosis at higher dose (PC3Neo cells; 600 ng/ml TRAIL): did not significantly increase apoptosis
